Assay results published in doi:10.1101/2021.02.07.430097, “Molecular and structural mechanisms of ZZ domain-mediated cargo recognition by autophagy receptor Nbr1” (bioRxiv, 2021).

B1: Ams1 (full length) of the Ams1-Nbr1 fusion protein (enzyme, S. pombe, UniProt Q9UT61 2-1077, looked up)
chain: TLFPVLNNTPVGKQVDSIYESRLDQFLSEGQYRDFNLPSVYDHARIDNPSGDVNNDLSKGFVDLKVYRVPDLSRPSFNEVVGHKKFDETASKGDTFGPSWATFWFEVHIRLPKSWAKYEQVIFQWNCDNEGLVYSQDGVPLQAFSGSERTDFILPDSWKTTEDTFYIEMACNGMFGTGAGSQIAPPDPNRYFTLTKADLVAPNLPAMALAYDFLLMQQCVKQLPSNCWQKYKARQICNDIMNTFHPNDLSTINECRNLAKAFLGNDIDSEAVFEKNNDKANVFAIGHCHIDTAWLWPFAETRRKIVRSWATQMNIMDRYPEYQFVCSQALQYLWLKEDHPDVFEKLKEYVNQNKFIPIGGSWVEHDTNIPNGESLIRQFLLGQHFFEKEFGVRCRTFWLPDTFGYSSQIPQICRLCGMDRFLTQKLSWNNINSFPTSTFNWVALDGSQVICHMPPANTYTADTNVNDVLHSIDQHKNLVNDQAGLLVFGIGDGGGGPTPEMLEKLRRCKGIANTVGYLPNVKLGNTVDEFFDGILKRTNAGQTLPSWNGELYFEFHRGTYTTQAELKKLMRKVEIALHDAEYVSTLASIFSKDYSYPKESLQDLWRDTLLCQFHDVLPGSCIEMVYKDAIPIMSKVLKNTEALLWQAIEQLGFKKASSSDNKEQLCLLNTLPWNVRGVITETEENKLVYFESCDGKGILTAAHTSLKHPAAAYQKDDNFILVNDHLRVTIAPNGLILSLFDLHKEREILDLKSGKNHAGANQYVLFEDTPLSWQAWDTEVFSLEKYEVLDKGKVSIKESGPLRASVVVDIPISELSHMKATISLEGYNDCSEFTGVNFTCEVDWHESCKFLKVEFPVDIHSEFASYETQFGITKRPTHYNTSWDVAKFEVCHQKFADYSDFTYGVSVLNDCKYGFSTHGNLMRLSLLRSPKQPDAHADMGKHTIRYAVYPHSKPLDSSTVRAAHKFNSNFRLLTRASDTANLDIFDAFQLVGEPNVILSHIKMAEKGKSIILRVYESLGGKSRARLVIKSLTVASVTKCNGLEEDLEELCTLKSNDYYEVPIELRAFEIATFKVNL
notes: S. pombe alpha-mannosidase Ams1 (SPAC513.05), full length; the first methionine is removed in vivo, T2 is the most N-terminal residue in the density map; residues 2-1077 are in the model; written as a molecule of its own for the pair; also called Ams1_1; Ams1_3; source: S. pombe, Pnmt1 promoter, purified (GFP-Trap beads, released by 3C protease)

How the values were obtained:
[1] = molecular target: the molecule itself; test: cryo-EM structure; Ams1-linker-Nbr1(53-180)-MBP fusion protein purified from S. pombe; 2.4 Å, D2 symmetry
[2] = molecular target: B1; test: as above; settings: both partners purified

Binder	stoichiometry N [1]	stoichiometry N [2]
B1	4	–
Nbr1(53-180) of the Ams1-Nbr1 fusion protein (domain or fragment, S. pombe, UniProt Q9P792 53-180, looked up, S. pombe Nbr1 residues 53-180 (ZZ1 and ZZ2); residues 59-108 are in the model; written as a molecule of its own for the pair; also called Nbr1-ZZ1; ZZ1; source: S. pombe, Pnmt1 promoter, purified (GFP-Trap beads, released by 3C protease); not shown: MBP, C-terminal, kept; GFP, C-terminal, cleaved) PTLRSSSVACNTCLKIIRNDSFHCTKCFDFDVCRDCYAKQAFLHPCPKPHFVLVRSSIPSVASLTCSVNSMSVSPQSNFMYAICDHCEQPIHNVRYKCSVCDDYDICESCLTDNSHSNTHAFVRITKA	–	4 Nbr1-ZZ1 molecules per Ams1 tetramer
